Laboratory results reported in patent US20260055142A1, “PHARMACEUTICAL USE OF POLYPEPTIDE IN PREPARATION OF DRUGS FOR TREATING AND/OR PREVENTING DIABETES AND OBESITY AND RELATED DISEASES THEREOF” (GUANGDONG RAYNOVENT BIOTECH CO., LTD., priority 2022, published 2026).
Like-named read-outs stand apart in the source and are kept apart here. Positions of bridges follow the written chain, without caps; N, C: chain ends. Non-standard residues stand in square brackets, D forms with d. No end group written: not given here. Ida bridge carrying fatty‑acid side chain of Intermediate A‑1 = not defined here; Aib = CC(C)(N)C(=O)O

Tests used:
human plasma albumin = assay type: in vitro ADME
Method: (§1) To study the binding of the test compounds to human/mouse plasma albumin. • 1. Blank matrix preparation: On the day of the experiment, the plasma was thawed in cold water and centrifuged at 3220 rpm for 5 min to remove all the blood clots. The pH of the resulting plasma was measured and adjusted to 7.4±0.1 with 1% phosphoric acid or 1 N sodium hydroxide as desired. • 2. Dilution of the test compounds: the test compounds were dissolved in dimethyl sulfoxide (DMSO) to prepare stock solutions of 10 mM and 2 mM, respectively. 2 μL of the stock solution (2 mM) was diluted with 98 μL of DMSO to obtain a working solution of 40 μM. 10 μL of the stock solution was diluted with 240 μL of DMSO to obtain a working solution of control compounds of 400 μM. A working solution of the compounds (5 μL) was mixed evenly with a blank matrix (995 μL) at a ratio of 1:200 to prepare a loading matrix. • 3. Analytical procedure • 3.1 Equal amounts of 30 μL of the loading matrix (n=2) were transferred into a sample collection plate to prepare Time 0 (T0) samples for residue determination. The samples were immediately matched with corresponding blank buffer to a final volume of 60 μL, with a volume ratio of plasma (the loading matrix) to buffer being 1:1 in each well. Then, into the TO samples of the test compounds were respectively added 60 μL of 4% H3PO4 in H2O and 480 μL of stop solution containing internal standard. They were then stored at 2° C. to 8° C. together with other samples for further treatment. • 3.2 The remaining plasma samples were pre-incubated in a carbon dioxide incubator at 37±1° C. for 30 min. Protein-free samples (F samples) were prepared. Matrix-loaded samples (230 μL) were all transferred into polycarbonate tubes (n=2) and ultracentrifuged at 37° C. and 155,000×g (35000 rpm) for 4 h. • 3.3 To prepare T samples (test samples), an additional matrix-containing sample was transferred into a separate 96-well plate (sample incubation plate) and incubated at 37° C. for 4 h. • 3.4 At the end of centrifugation, 30 μL of protein-free samples (F samples) and 30 μL of T samples were taken from the second layer (beneath the upper layer) of the supernatant and transferred into a new sample collection plate. Each sample was mixed with corresponding blank buffer or matrix to a final volume of 60 μL, and the blank matrix:buffer volume ratio is 1:1. Into all the samples were added 60 μL of 4% H3PO4 solution in water and 480 μL of stop solution containing internal standard. The mixture was centrifuged at 4000 rpm for 20 min. 100 μL of supernatant for each sample was taken for LC-MS/MS analysis.

mouse plasma albumin = assay type: in vitro ADME
Method: as §1

[1] = design: species or system C57BL/6 mice; conditions: mouse, in vivo, sc, 0.048 mg/kg
Method: To test the pharmacokinetic profiles of the compounds in C57BL/6 mice. The pharmacokinetic characteristics in rodent animals following subcutaneous injection of the compounds were tested using standard protocols. In the experiment, the candidate compounds were formulated into clear solution, which was administered by subcutaneous injection (SC, 0.048 mpk). The vehicle for subcutaneous injection was citrate buffer solution (20 mM, pH=7). The whole blood was collected and processed to get the plasma. The drug concentration was analyzed by LC-MS/MS, and the pharmacokinetic parameters were calculated using Phoenix WinNonlin software.

[2] = design: species or system Cynomolgus macaques; conditions: cynomolgus monkey, in vivo, sc, 0.02 mg/kg
Method: To test the pharmacokinetic profiles of the compounds in Cynomolgus macaques. The pharmacokinetic characteristics in mammals following intravenous injection and subcutaneous injection of the compounds were tested using standard protocols. In the experiment, the candidate compounds were formulated into clear solution, which was administered to Cynomolgus macaques by single subcutaneous injection (SC, 0.02 mpk). The vehicle for subcutaneous injection was citrate buffer solution (20 mM, pH=7). The whole blood was collected and processed to get the plasma. The drug concentration was analyzed by LC-MS/MS, and the pharmacokinetic parameters were calculated using Phoenix WinNonlin software.

[3] = design: species or system SD rats; conditions: rat, in vivo, sc, 0.048 mg/kg
Method: To test the pharmacokinetic profiles of the compounds in SD rats. The pharmacokinetic characteristics in rodent animals following subcutaneous injection of the compounds were tested using standard protocols. In the experiment, the candidate compounds were formulated into clear solution, which was administered to the rats by single subcutaneous injection (SC, 0.048 mpk). The vehicle for injection was citrate buffer solution (20 mM, pH=7). The whole blood was collected and processed to get the plasma. The drug concentration was analyzed by LC-MS/MS, and the pharmacokinetic parameters were calculated using Phoenix WinNonlin software.

GIPR = target: T1, GIPR (UniProt P48546 22-466, limits assumed); assay: cell-based or functional assay
T1 sequence (looked up): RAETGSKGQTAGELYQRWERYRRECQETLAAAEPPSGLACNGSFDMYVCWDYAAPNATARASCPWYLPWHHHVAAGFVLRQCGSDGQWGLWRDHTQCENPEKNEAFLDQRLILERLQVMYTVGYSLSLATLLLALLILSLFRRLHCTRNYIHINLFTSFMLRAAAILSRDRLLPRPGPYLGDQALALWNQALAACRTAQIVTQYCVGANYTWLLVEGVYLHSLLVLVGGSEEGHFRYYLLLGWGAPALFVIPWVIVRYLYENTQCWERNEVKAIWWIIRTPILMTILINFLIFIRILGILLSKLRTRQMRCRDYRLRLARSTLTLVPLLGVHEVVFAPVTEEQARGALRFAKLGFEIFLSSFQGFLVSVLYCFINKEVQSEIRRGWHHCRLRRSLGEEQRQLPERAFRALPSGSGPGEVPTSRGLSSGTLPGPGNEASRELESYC

GLP-1R = GLP-1R (UniProt P43220 24-463, limits assumed); assay: cell-based or functional assay

## CC[C@H](C)[C@H](NC(=O)[C@H](CC(C)C)NC(=O)[C@H](Cc1c[nH]c2ccccc12)NC(=O)[C@H](CCC(=O)O)NC(=O)[C@@H](NC(=O)[C@H](Cc1ccccc1)NC(=O)[C@H](C)NC(=O)[C@@H]1CCCCNC(=O)CN(C(=O)COCCOCCNC(=O)COCCOCCNC(=O)CC[C@H](NC(=O)CCCCCCCCCCCCCCCCCCC(=O)O)C(=O)O)CC(=O)NCCCC[C@H](NC(=O)[C@H](CCCCN)NC(=O)[C@H](CC(=O)O)NC(=O)[C@H](CC(C)C)NC(=O)C(C)(C)NC(=O)[C@@H](NC(=O)[C@H](CO)NC(=O)[C@H](Cc2ccc(O)cc2)NC(=O)[C@H](CC(=O)O)NC(=O)[C@H](CO)NC(=O)[C@@H](NC(=O)[C@H](Cc2ccccc2)NC(=O)[C@@H](NC(=O)CNC(=O)[C@H](CCC(=O)O)NC(=O)C(C)(C)NC(=O)[C@@H](N)Cc2ccc(O)cc2)[C@@H](C)O)[C@@H](C)O)[C@@H](C)CC)C(=O)N[C@@H](C)C(=O)N[C@@H](CCC(N)=O)C(=O)N1)C(C)C)C(=O)N[C@@H](C)C(=O)NCC(=O)NCC(=O)N1CCC[C@H]1C(=O)N[C@@H](CO)C(=O)N[C@@H](CO)C(=O)NCC(=O)N[C@@H](C)C(=O)N1CCC[C@H]1C(=O)N1CCC[C@H]1C(=O)N1CCC[C@H]1C(=O)N[C@@H](CO)C(N)=O [WX-005]
Human plasma albumin
  PPB % unbound (H): NA/NA
Mouse plasma albumin
  PPB % unbound (M): NA/NA

## CC[C@H](C)[C@H](NC(=O)[C@H](CC(C)C)NC(=O)[C@H](Cc1c[nH]c2ccccc12)NC(=O)[C@H](CCC(=O)O)NC(=O)[C@@H](NC(=O)[C@H](Cc1ccccc1)NC(=O)[C@H](CCC(=O)O)NC(=O)[C@@H]1CCCCNC(=O)CN(C(=O)COCCOCCNC(=O)COCCOCCNC(=O)CC[C@H](NC(=O)CCCCCCCCCCCCCCCCCCC(=O)O)C(=O)O)CC(=O)NCCCC[C@H](NC(=O)[C@H](CCCCN)NC(=O)[C@H](CC(=O)O)NC(=O)[C@H](CC(C)C)NC(=O)C(C)(C)NC(=O)[C@@H](NC(=O)[C@H](CO)NC(=O)[C@H](Cc2ccc(O)cc2)NC(=O)[C@H](CC(=O)O)NC(=O)[C@H](CO)NC(=O)[C@@H](NC(=O)[C@H](Cc2ccccc2)NC(=O)[C@@H](NC(=O)CNC(=O)[C@H](CCC(=O)O)NC(=O)C(C)(C)NC(=O)[C@@H](N)Cc2ccc(O)cc2)[C@@H](C)O)[C@@H](C)O)[C@@H](C)CC)C(=O)N[C@@H](C)C(=O)N[C@@H](CCC(N)=O)C(=O)N1)C(C)C)C(=O)N[C@@H](C)C(=O)NCC(=O)NCC(=O)N1CCC[C@H]1C(=O)N[C@@H](CO)C(=O)N[C@@H](CO)C(=O)NCC(=O)N[C@@H](C)C(=O)N1CCC[C@H]1C(=O)N1CCC[C@H]1C(=O)N1CCC[C@H]1C(=O)N[C@@H](CO)C(N)=O [WX-009]
[1]
  AUC(0-t): 1.99 µM·h
  half-life: 17 h
Human plasma albumin
  PPB % unbound (H): NA/NA
Mouse plasma albumin
  PPB % unbound (M): NA/NA
[2]
  AUC(0-t): 4.74 µM·h
  half-life: 105 h
[3]
  AUC(0-t): 1.09 µM·h
  half-life: 21 h

B1: polypeptide compound WX-001 (peptide)
peptide: Y[Aib]EGTFTSDYSI[Aib]LDKIAQKAFVKWLIAGGPSSGAPPPS-NH2
modifications: linker 20-24 via Ida bridge carrying fatty‑acid side chain of Intermediate A‑1; reading uncertain
GIPR
  EC50, cAMP assay, (+) 1% HSA: 16 nM
  EC50, cAMP assay, (-) 1% HSA: 0.324 nM
  Ratio (EC50 (+) 1% HSA over (-) 1% HSA): 49.3
GLP-1R
  EC50, cAMP assay, (+) 1% HSA: 16.6 nM
  EC50, cAMP assay, (-) 1% HSA: 0.0596 nM
  Ratio (EC50 (+) 1% HSA over (-) 1% HSA): 279

B2: polypeptide WX-005 (peptide)
peptide: Y[Aib]EGTFTSDYSI[Aib]LDKKAQKAFVEWLIAGGPSSGAPPPS-NH2
modifications: linker 17-20 via Ida; also: Ida bridge carries fatty-acid side chain of Intermediate A-1
GIPR
  EC50, cAMP assay, (+) 1% HSA: 19.3 nM
  EC50, cAMP assay, (-) 1% HSA: 0.16 nM
  Ratio (EC50 (+) 1% HSA over (-) 1% HSA): 121
GLP-1R
  EC50, cAMP assay, (+) 1% HSA: 7.63 nM
  EC50, cAMP assay, (-) 1% HSA: 0.036 nM
  Ratio (EC50 (+) 1% HSA over (-) 1% HSA): 212

B3: polypeptide WX-009 (peptide)
peptide: Y[Aib]EGTFTSDYSI[Aib]LDKKAQKEFVEWLIAGGPSSGAPPPS-NH2
modifications: linker 17-20 via Ida bridge carrying fatty‑acid side chain of Intermediate A‑1; reading uncertain
GIPR
  EC50, cAMP assay, (-) 1% HSA: 0.074 nM
GLP-1R
  EC50, cAMP assay, (-) 1% HSA: 0.014 nM

B4: polypeptide WX-010 (peptide)
peptide: Y[Aib]EGTFTSDYSI[Aib]LDKKAQKAFVEWLIAGGPSSGAPPPS-NH2
modifications: bridge 17-20; not fully specified (bridges); also: Glu bridge amino group carries fatty-acid side chain of Intermediate A-1
GIPR
  EC50, cAMP assay, (-) 1% HSA: 0.14 nM
GLP-1R
  EC50, cAMP assay, (-) 1% HSA: 0.017 nM
